This passage reports screen value results from publication PMC4549301 (2015).

B1: GST–HCF-1rep1, wild type (HCF-1 residues 867–1071) [human] / Recombinant human O-linked β-N-acetylglucosamine transferase (OGT), wild type [human] (parent complex)
chain 1: PAVTTLVVKGTTGVTTLGTVTGTVSTSLAGAGGHSTSASLATPITTLGTIATLSSQVINPTAITVSAAQTTLTAAGGLTTPTITMQPVSQPTQVTLITAPSGVEAQPVHDLPVSILASPTTEQPTATVTIADSGQGDVQPGTVTLVCSNPPCETHETGTTNTATTTVVANLGGHPQPTQVQFVCDRQEAAASLVTSTVGQQNGSV
chain 2: MASSVGNVADSTGLAELAHREYQAGDFEAAERHCMQLWRQEPDNTGVLLLLSSIHFQCRRLDRSAHFSTLAIKQNPLLAEAYSNLGNVYKERGQLQEAIEHYRHALRLKPDFIDGYINLAAALVAAGDMEGAVQAYVSALQYNPDLYCVRSDLGNLLKALGRLEEAKACYLKAIETQPNFAVAWSNLGCVFNAQGEIWLAIHHFEKAVTLDPNFLDAYINLGNVLKEARIFDRAVAAYLRALSLSPNHAVVHGNLACVYYEQGLIDLAIDTYRRAIELQPHFPDAYCNLANALKEKGSVAEAEDCYNTALRLCPTHADSLNNLANIKREQGNIEEAVRLYRKALEVFPEFAAAHSNLASVLQQQGKLQEALMHYKEAIRISPTFADAYSNMGNTLKEMQDVQGALQCYTRAIQINPAFADAHSNLASIHKDSGNIPEAIASYRTALKLKPDFPDAYCNLAHCLQIVCDWTDYDERMKKLVSIVADQLEKNRLPSVHPHHSMLYPLSHGFRKAIAERHGNLCLDKINVLHKPPYEHPKDLKLSDGRLRVGYVSSDFGNHPTSHLMQSIPGMHNPDKFEVFCYALSPDDGTNFRVKVMAEANHFIDLSQIPCNGKAADRIHQDGIHILVNMNGYTKGARNELFALRPAPIQAMWLGYPGTSGALFMDYIITDQETSPAEVAEQYSEKLAYMPHTFFIGDHANMFPHLKKKAVIDFKSNGHIYDNRIVLNGIDLKAFLDSLPDVKIVKMKCPDGGDNADSSNTALNMPVIPMNTIAEAVIEMINRGQIQITINGFSISNGLATTQINNKAATGEEVPRTIIVTTRSQYGLPEDAIVYCNFNQLYKIDPSTLQMWANILKRVPNSVLWLLRFPAVGEPNIQQYAQNMGLPQNRIIFSPVAPKEEHVRRGQLADVCLDTPLCNGHTTGMDVLWAGTPMVTMPGETLASRVAASQLTCLGCLELIAKNRQEYEDIAVKLGTDLEYLKKVRGKVWKQRISSPLFNTKQYTMELERLYLQMWEHYAAGNKPDHMIKPVEVTESA

Variants of B1 are the subject of the experiment. Put plainly: in vitro HCF-1rep1-OGT binding assay (OGT pull-down, quantified immunoblot); in the presence of UDP-GlcNAc; read off a plot. (In general: A western blot detects proteins with antibodies after separation by electrophoresis.)
On to chain 1 PAVTTLVVKGTTGVTTLGTVTGTVSTSLAGAGGHSTSASLATPITTLGTIATLSSQVINPTAITVSAAQTTLTAAGGLTTPTITMQPVSQPTQVTLITAPSGVEAQPVHDLPVSILASPTTEQPTATVTIADSGQGDVQPGTVTLVCSNPPCEAHETGTTNTATTTVVANLGGHPQPTQVQFVCDRQEAAASLVTSTVGQQNGSV [chain 1 T154A], for which the screen value is about 0.3 log2 fold change.

For chain 1 PAVTTLVVKGTTGVTTLGTVTGTVSTSLAGAGGHSTSASLATPITTLGTIATLSSQVINPTAITVSAAQTTLTAAGGLTTPTITMQPVSQPTQVTLITAPSGVEAQPVHDLPVSILASPTTEQPTATVTIADSGQGDVQPGTVTLVCSNPACETHETGTTNTATTTVVANLGGHPQPTQVQFVCDRQEAAASLVTSTVGQQNGSV [chain 1 P151A], the screen value was about -0.7 log2 fold change.

On to chain 1 PAVTTLVVKGTTGVTTLGTVTGTVSTSLAGAGGHSTSASLATPITTLGTIATLSSQVINPTAITVSAAQTTLTAAGGLTTPTITMQPVSQPTQVTLITAPSGVEAQPVHDLPVSILASPTTEQPTATVTIADSGQGDVQPGTVTLVCSNAPCETHETGTTNTATTTVVANLGGHPQPTQVQFVCDRQEAAASLVTSTVGQQNGSV [chain 1 P150A], for which the screen value is about -1.7 log2 fold change.

Take chain 1 PAVTTLVVKGTTGVTTLGTVTGTVSTSLAGAGGHSTSASLATPITTLGTIATLSSQVINPTAITVSAAQTTLTAAGGLTTPTITMQPVSQPTQVTLITAPSGVEAQPVHDLPVSILASPTTEQPTATVTIADSGQGDVQPGTVTLVCSNPPCETHATGTTNTATTTVVANLGGHPQPTQVQFVCDRQEAAASLVTSTVGQQNGSV [chain 1 E156A]: the screen value is about -1.1 log2 fold change.

For chain 1 PAVTTLVVKGTTGVTTLGTVTGTVSTSLAGAGGHSTSASLATPITTLGTIATLSSQVINPTAITVSAAQTTLTAAGGLTTPTITMQPVSQPTQVTLITAPSGVEAQPVHDLPVSILASPTTEQPTATVTIADSGQGDVQPGTVTLVCSNPPCETHEAGTTNTATTTVVANLGGHPQPTQVQFVCDRQEAAASLVTSTVGQQNGSV [chain 1 T157A], the screen value was about -3 log2 fold change.

chain 1 PAVTTLVVKGTTGVTTLGTVTGTVSTSLAGAGGHSTSASLATPITTLGTIATLSSQVINPTAITVSAAQTTLTAAGGLTTPTITMQPVSQPTQVTLITAPSGVEAQPVHDLPVSILASPTTEQPTATVTIADSGQGDVQPGTVTLVCSNPPCETAETGTTNTATTTVVANLGGHPQPTQVQFVCDRQEAAASLVTSTVGQQNGSV [chain 1 H155A]: the screen value is about -0.5 log2 fold change.

Take chain 1 PAVTTLVVKGTTGVTTLGTVTGTVSTSLAGAGGHSTSASLATPITTLGTIATLSSQVINPTAITVSAAQTTLTAAGGLTTPTITMQPVSQPTQVTLITAPSGVEAQPVHDLPVSILASPTTEQPTATVTIADSGQGDVQPGTVTLVCSNPPAETHETGTTNTATTTVVANLGGHPQPTQVQFVCDRQEAAASLVTSTVGQQNGSV [chain 1 C152A]: the screen value is about -0.55 log2 fold change.
